Experimental data reported in US6770458.

Assays:
Experiment in all cases: cell-based or functional assay
[1] = target: p53 fused to the GAL4 DNA-binding domain (pAS2) (UniProt P04386)
[2] = target: CDK2 fused to the GAL4 DNA-binding domain (pAS2) (UniProt P04386)
[3] = target: Smad7 (expression construct, tag not specified)

p53 fused to the GAL4 DNA-binding domain (pAS2), sequence (P04386 1-147): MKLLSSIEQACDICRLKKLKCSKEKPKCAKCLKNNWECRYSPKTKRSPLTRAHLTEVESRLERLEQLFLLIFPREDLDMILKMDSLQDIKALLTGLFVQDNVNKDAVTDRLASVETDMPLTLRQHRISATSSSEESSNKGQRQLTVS
CDK2 fused to the GAL4 DNA-binding domain (pAS2), sequence (P04386 1-147): as above

## FKBP12.6 in pACT (from UniProt Q9Z2I2 1-108)
[1]
  β-galactosidase Activity (relative scale): 1.1

## STRAP (Serine-Threonine Kinase Receptors Associated Protein) in pACT (from UniProt Q9Z1Z2 1-350)
[2]
  β-galactosidase Activity (relative scale): 1.2
[1]
  β-galactosidase Activity (relative scale): < 1

## STRAP (expression construct, tag not specified) (from UniProt Q9Z1Z2 1-350)
[3]
  fold repression of (CAGA)9 MLP-Luc reporter activity in HepG2 cells: 105 fold
